{"source": "paper PMC7185751", "about": "(Biochimica et Biophysica Acta. Proteins and Proteomics, 2014)", "key": {"[1]": {"test_system": "histidine-57 in α-chymotrypsin", "details": "cited from earlier work"}, "α-chymotrypsin [2]": {"target": "T1, α-chymotrypsin (Bos taurus, UniProt P00766)", "details": "from pH 8 to 3, chymotrypsin; cited from earlier work"}, "[3]": {"experiment": "13C-NMR pH titration of free inhibitor", "format": "physicochemical", "details": "carboxyl group, determined by 13C-NMR"}, "α-chymotrypsin [4]": {"target": "T1, α-chymotrypsin", "details": "from pH 7.2 to 3.2 or 10.2; cited from earlier work"}, "His57 [5]": {"target": "T2, His57 (UniProt position 57, VVTAAHCGVTT)", "experiment": "NMR", "details": "25 °C; hemiketal complex with the glyoxal inhibitor Z-Ala-Ala-Phe-COCHO; cited from earlier work"}, "His57 [6]": {"target": "T2, His57", "details": "cited from earlier work"}}, "note": "Where two headings read alike, the source gives them in different places. Where a SMILES comes first, the peptide text is derived from it.", "data": [{"molecule": "CC(=O)N[C@@H](CC(C)C)C(=O)N[C@H](C=O)Cc1ccccc1", "note": "[Acetyl-Leu-Phe-CHO] (Ac-Leu-Phe-aldehyde)", "values": [{"measurement": "histidine pKa in the complex with α-chymotrypsin", "setting": "[1]", "result": 6.5}]}, {"molecule": "O=C[C@H](Cc1ccccc1)NC(=O)c1ccccc1", "note": "[Bz-Phe-CHO]", "values": [{"measurement": "fold increase in Ki", "setting": "α-chymotrypsin [2]", "result": 4, "unit": "fold"}]}, {"molecule": "CC(NC(=O)OCc1ccccc1)C(=O)NC(C)C(=O)NC(Cc1ccccc1)[13C](=O)O", "note": "(stereo not drawn) [ZAAF-^13COOH]", "values": [{"measurement": "pKa", "setting": "[3]", "result": "3.52 ± 0.03"}]}, {"molecule": "C[C@H](NC(=O)OCc1ccccc1)C(=O)N1CCC[C@H]1C(=O)N[C@@H](Cc1ccccc1)C(=O)C=O", "note": "[ZAPF-COCHO]", "values": [{"measurement": "change of hemiketal formation", "setting": "α-chymotrypsin [4]", "result": "decreases"}]}, {"molecule": "alpha-chymotrypsin (Bos taurus (inferred; the article only says commercial alpha-chymotrypsin from Sigma))", "values": [{"measurement": "pKa", "setting": "His57 [5]", "result": "> 11"}, {"measurement": "pKa", "setting": "His57 [6]; complex with the aldehyde inhibitor Acetyl-Leu-Phe-CHO (hemiacetal)", "result": 6.5}, {"measurement": "pKa", "setting": "His57 [6]; free enzyme", "result": 6.7}]}, {"molecule": "chymotrypsin (activation form not specified in the quoting sentence) (Bos taurus (inferred))", "values": [{"measurement": "pKa", "setting": "His57 [6]; negatively charged tetrahedral adduct with peptidyl boronic acid inhibitors", "result": "> 10"}]}, {"molecule": "delta-chymotrypsin (Bos taurus (inferred))", "values": [{"measurement": "pKa", "setting": "His57 [6]; free enzyme", "result": 7.5}]}]}
